Target: GST-GNL1 (UniProt P36915 1-607)
Test: EMSA

Chain of GST-GNL1 (P36915 whole entry): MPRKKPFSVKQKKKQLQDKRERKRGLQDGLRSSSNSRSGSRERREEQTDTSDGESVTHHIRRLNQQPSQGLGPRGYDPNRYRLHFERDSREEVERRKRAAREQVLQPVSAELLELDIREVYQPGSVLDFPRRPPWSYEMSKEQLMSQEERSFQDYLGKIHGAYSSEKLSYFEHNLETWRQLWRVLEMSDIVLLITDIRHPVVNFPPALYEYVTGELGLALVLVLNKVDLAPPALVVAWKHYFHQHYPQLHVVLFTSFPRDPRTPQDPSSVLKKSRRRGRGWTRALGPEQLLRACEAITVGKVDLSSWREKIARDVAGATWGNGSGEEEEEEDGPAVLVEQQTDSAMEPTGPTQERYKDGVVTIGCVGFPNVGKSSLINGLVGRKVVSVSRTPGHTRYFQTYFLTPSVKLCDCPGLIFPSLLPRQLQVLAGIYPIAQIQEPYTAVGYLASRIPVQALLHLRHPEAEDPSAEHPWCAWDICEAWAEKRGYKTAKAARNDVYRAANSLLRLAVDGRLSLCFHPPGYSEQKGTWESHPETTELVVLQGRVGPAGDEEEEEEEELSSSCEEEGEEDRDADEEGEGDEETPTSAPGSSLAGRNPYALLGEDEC

B1: PRKN G/A mutant (ssRNA)
RNA: GGAUUCCUAGGGCCGAGCGCGAGAGCGAGAAGGCCUGAAGGAUUUAACCCAGAAGAGCCGCUGGUGAGAGGCGCGGCUGGCGCCGCUGCGCGC
B1 was tested, and the Kd was 7.34 µM.
